# Measured values reported in publication doi:10.1101/2021.02.07.430159.
# Target: GST-MLLE protein (MLLE domain of PABPC1)
# Experiment: SPR
binder,measurement,value
SNLNPNAPEFHPGVPWKGLQ [super-PAM2 peptide],Kd,20 nM
